The source of these data is US20250042946A1, “Biological Production of Histidine-Rich Peptides” (Oakgrove Bio LLC, priority 2021, published 2025).

Data set [1] is classed as physicochemical. As for the experimental part:
After the acid-based purification step at acidic pH described in Example 5, the neutralized insoluble fusion peptides were washed again with water to remove traces of buffer and were resuspended in 1 mL of 10 mM HCl pH 2. The precipitates resolubilized immediately thus highlighting the rapid, reversible and pH-controllable properties of the peptide fusions to IFPs The tubes containing the solubilized fusion peptides were incubated at 80° C. for 4 hours to allow the cleavage of the Asp-Pro acid-labile peptide bond in the linker connecting the IFP and the POI. After four hours at 80° C., the solutions were neutralized back to a pH comprised between 6.5 and 8.0 by addition of 60 μL of 500 mM Tris Base Tris per mL of pH 2 peptide solution. For most fusions, the neutralization was accompanied by the immediate formation of precipitates. When only a light precipitate was observed, the buffer was adjusted to neutrality by careful addition of HCl or of buffer base. The neutralized fractions were placed at −20° C. for 20 min to enhance precipitation, and then subsequently thawed and centrifuged at 20,000×g for 5 min. The supernatants were transferred to a new tube and the pellets resuspended in 1 ml of water. Aliquots of soluble and insoluble fractions were analyzed by PAGE.

Data set [2] can be described thus: Soluble versus insoluble fraction of E. coli cell extracts, SDS-PAGE. In kind it is physicochemical. The note with it: cell extract in 25 mM Tris 50 mM NaCl pH 7.5, centrifugation 20,000×g. As for the experimental part:
To determine the soluble versus insoluble cell contents, cells from each of the 3 mL cultures were harvested by centrifugation and the pellet resuspended in 1 ml of 25 mM Tris 50 mM NaCl PH 7.5 buffer. The cell suspensions were transferred in 2 mL screw cap tubes containing 0.5 mL of ZrO2/SiO4 0.1 mm beads (Research Product International, Mount Prospect, IL) and disrupted in a FastPrep-24™ bead beater (MP Bio Irvine, CA) for 1 min at 5 m/s. After disruption, the cell extracts were transferred to new microfuge tubes. The soluble and insoluble fractions were then separated by centrifugation at 20,000×g for 5 min. The supernatants containing the soluble proteins were transferred to new tubes and the pellets containing the inclusion bodies were resuspended in the same volume of Tris-NaCl buffer.
Ten μL aliquots of the soluble fraction and of the particulate fraction are analyzed by SDS-PAGE using precast NuPAGE™ Bis-Tris 12% polyacrylamide gels (Thermo Scientific) as indicated by the manufacturer. After electrophoresis, the proteins and peptides were visualized by staining with GelCode™ Blue Safe Protein Coomassie Stain (Thermo Scientific).

Data set [3] is classed as physicochemical. The settings on record: pH 2. The method, then:
To evaluate the useful solubilization of the IFPs at acidic and alkaline pH (from pH 2 to pH 12), the insoluble fractions of cell extracts expressing selected IFPs were produced as described in Example 2. They were pelleted by centrifugation for 5 min at 20,000×g and washed with water several times to remove the buffer. The washed pellets were resuspended in 10 mM HCl pH 2 or in 10 mM NaOH pH 12. Suspensions were mixed vigorously and allowed to stand at room temperature for 15 min at which time they were centrifuged again for 5 min at 20,000×g. The solubilization of the IFPs in either acidic (pH 2) or alkaline (pH 12) conditions was assessed by PAGE analysis of an aliquot of the centrifugation supernatant.
Cells were harvested by centrifugation at 20,000×g, resuspended in 1 mL of 25 mM Tris […] pH 7.5 and disrupted with a bead beater as described in Example 2. Following cell disruption and centrifugation, the insoluble fractions were washed several times in deionized water to remove traces of buffer and then recovered by centrifugation. The fractions were resuspended in 1 mL of 10 mM HCl pH 2 with repeated vortexing over 15 min at room temperature. […] Aliquots of each fraction corresponding to a same initial volume of cell extracts were analyzed by SDS-PAGE.

Data set [4] is classed as physicochemical. The method, then: After 15 min at pH 2, the acidified supernatant fraction were neutralized by addition of 40 μL 500 mM Tris base or 60 μL of Bis-Tris base per mL of pH 2 fraction to reach a pH comprised between 6.5 and 8.0. For most fusions, the neutralization was accompanied by the immediate formation of a precipitate. When only a light precipitate was observed, the buffer was adjusted to neutrality by addition of HCl or of buffer base. The neutralized fractions were placed at −20° C. for 20 min and were subsequently thawed. The neutralized fractions were then centrifuged at 20,000×g for 5 min. Their supernatant was discarded and the pellets containing the insoluble fusion peptides resuspended in 1 ml of water.
This is another data set of the same source.

Turning to Apidaecin, the “solubility at neutral pH after acid cleavage (partition supernatant / pellet)” value (“solubility … (partition supernatant / pellet)” for short) in data set [1] is listed as “recovered in the soluble fraction”.

As to “IFP534: insolubility fusion partner, 4 × QQHYHYHQQ, GGGG linker, SEQ ID NO: 62”, in data set [1], the “solubility … (partition supernatant / pellet)” value is listed as “remains in the insoluble fraction”. Take Lunasin: the “solubility … (partition supernatant / pellet)” value in data set [1] is reported as “recovered in the soluble fraction”.

B1: IFP-Api-006: split fusion, two copies of Apidaecin sandwiched between three copies of IFP100, SEQ ID NO: 100 (protein)
chain: MASGGGQQHYHYHQQGGGGQQHYHYHQQGGDPGGGNNRPVYIPQPRPPHPPRGGDPGGQQHYHYHQQGGGGQQHYHYHQQGGDPGGGNNRPVYIPQPRPPHPPRGGDPGGQQHYHYHQQGGGGQQHYHYHQQGGGPGPGPHHHHH
Regarding B1, the “solubility of the polypeptide as expressed in E. coli” value (“solubility of the polypeptide” for short) in data set [2] is listed as “expressed the split fusion insolubly”.

B2: IFP-Luna-006: split fusion, two copies of Lunasin sandwiched between three copies of IFP100, SEQ ID NO: 102 (protein)
chain: MASGGGQQHYHYHQQGGGGQQHYHYHQQGGDPGGSKWQHQQDSCRKQLQGVNLTPCEKHIMEKIQGRGDDDDDDDDDPGGGGQQHYHYHQQGGGGQQHYHYHQQGGDPGGSKWQHQQDSCRKQLQGVNLTPCEKHIMEKIQGRGDDDDDDDDDPGGGGQQHYHYHQQGGGGQQHYHYHQQGGGPGPGPHHHHHH
Turning to B2, the “solubility of the polypeptide” value in data set [2] was “expressed the split fusion insolubly”.

B3: IFP221: insolubility fusion partner of IFP221-Api; 3 × QQEYHYHYHYRQQ with GGGG spacers as in SEQ ID NO: 94 (protein)
chain: MASGGGQQEYHYHYHYRQQGGGGQQEYHYHYHYRQQGGGGQQEYHYHYHYRQQGGGDPGGGNNRPVYIPQPRPPHPRLGGGGDPGGGNNRPVYIPQPRPPHPRLGGGGDPGPGPHHHHHH
On to B3, for which, in data set [1], the “solubility … (partition supernatant / pellet)” value was “remains in the insoluble fraction”.

B4: IFP-Api-003: split fusion, Apidaecin sandwiched between two copies of IFP100, cLNK GGDPGG, SEQ ID NO: 98 (protein)
chain: MASGGGQQHYHYHQQGGGGQQHYHYHQQGGDPGGGNNRPVYIPQPRPPHPPRGGDPGGQQHYHYHQQGGGGQQHYHYHQQGGGPGPGPHHHHHH
B4: the “solubility of the polypeptide” value in data set [2] is “expressed the split fusion insolubly”.

B5: IIP015: insoluble immunogenic peptide, 6 × SAP234 with 3 × Ova1, Structure 9, SEQ ID NO: 114 (protein)
chain: MASGGDPGGQQHYHYHQQGGGGSIINFEKLGGGGQQHYHYHQQGGDPGGQQHYHYHQQGGGGSIINFEKLGGGGQQHYHYHQQGGDPGGQQHYHYHQQGGGGSIINFEKLGGGGQQHYHYHQQGGDPGGPGPGP
In the case of B5, the “solubility of the polypeptide” value in data set [2] is “produced insolubly”. Moreover, in data set [3], the “solubilization at acidic pH” value is listed as “solubilization”. Also, the “re-insolubilization (precipitation) upon neutralization” value in data set [4] is “re-insolubilization”.

B6: IIP003: insoluble immunogenic peptide, 6 × SAP162 with 3 × Ova1, Structure 9, SEQ ID NO: 104 (protein)
chain: MASGGDPGGHQEYHYHYRQHGGGGSIINFEKLGGGGHQEYHYHYRQHGGDPGGHQEYHYHYRQHGGGGSIINFEKLGGGGHQEYHYHYRQHGGDPGGHQEYHYHYRQHGGGGSIINFEKLGGGGHQEYHYHYRQHGGDPGGPGPGP
For the molecule B6, the “solubility of the polypeptide” value in data set [2] is reported as “produced insolubly”. The “solubilization at acidic pH” value in data set [3] is recorded as “solubilization”. The “re-insolubilization (precipitation) upon neutralization” value in data set [4] is “re-insolubilization”.
